Experiments:
MCF-7 cells = assay: MCF-7 cell proliferation assay, IGF-1R agonist format; format: cell-based, human; details: MCF-7 and MiaPaCa cells (Tables 27-28)
Source text: ; FIGS. 65A-65F), and were used for subsequent experiments.

[1] = target: T1, insulin receptor construct transfected into 32D cells (Homo sapiens, UniProt P06213); assay: IR autophosphorylation assay in IR transfected 32D cells (ELISA); format: cell-based; details: tested as MBP fusion peptides
T1 construct: expressed in transfected cells; host or cells: 32D cells (clone 969)
Experimental: The IR transfected 32D cells were seeded at […] in 96-well tissue culture plates and incubated overnight at 37° C. […] The culture media was decanted from the cell culture plates, and the diluted samples were added to the cells. The plates were incubated at 37° C. for 30 min. The stimulation medium was decanted from the plates, and cell lysis buffer (50 mM HEPES pH 7.2, 150 mM NaCl, 0.5% Triton X-100, 1 mM AEBSF, 10 KIU/ml aprotinin, 50 μM leupeptin, and 2 mM sodium orthovanadate) was added. The cells were lysed for 30 min.
In the ELISA portion of the assay, the cell lysates were added to the BSA-blocked anti-IR unit mAb (Upstate Biotechnology, Lake Placid, N.Y.) coated ELISA plates. After a 2 h incubation, the plates were washed 6 times with PBST and biotinylated anti-phosphotyrosine antibody (Upstate Biotechnology) is added. After another 2 h incubation, the plates were again washed 6 times. Streptavidin-Eu was then added, and the plates were incubated for 1 h. After washing the plates again, EG&G Wallac enhancement solution (100 mM acetone-potassium hydrogen pthalate, pH 3.2; 15 mM 2-naphtyltrifluoroacetate; 50 mM tri(n-octyl)-phosphine oxide; 0.1% Triton X-100) was added into each well, and the plates were placed onto a shaker for 20 min at RT.

[2] = system: free fat cells (adipocytes); assay: Adipocyte / free fat cell (FFC) assay, 3H glucose incorporation into lipid; details: for FFC Pot., agonist or antagonist: Table 8, letter before the potency
Experimental: Incorporation of ^3H into the lipid phase was determined by partitioning of lipid phase into a scintillant mixture, which excludes water-soluble ^3H products.

[3] = target: recombinant human insulin receptor (Homo sapiens, UniProt P06213); assay: Substrate phosphorylation assay (HIR kinase); format: biochemical; details: Table 8, HIR kinase assay
Experimental: Subsequently, a 2000-fold dilution of horseradish peroxidase (HRPO) conjugated phosphotyrosine antibody (Transduction Laboratories, Cat. No. E120H) in TBS was added. The plates were incubated for 30 min and washed 3 times with TBS. TMB (3,3′,5,5′-tetramethylbenzidine; Kem-En-Tec, Copenhagen, Denmark) was added. One substrate from Kem-En-Tec was added. After 10-15 min, the reaction was stopped by the addition of 1% acetic acid. The absorbance, representing the extent of substrate phosphorylation, was measured in a spectrophotometer at a wavelength of 450 nm.

[4] = target: T2, human insulin receptor (HIR) (Homo sapiens, UniProt P06213); assay: Insulin receptor binding, competition with 125I-labeled insulin (HIR Kd); details: insulin competition
T2 construct: made in house

IR = IR activity (agonist/antagonist) of MBP-peptide fusions, Table 10; test not named; details: MBP-peptide fusion proteins; one symbol per monomer unit

B1: D112-12-RP30-IGF: dimer peptide (Site 1-Site 1) (protein)
chain: ADYKDCWARPCGDAANFYDWFVQQASKKGGSGGSGGSGGSSFYSCLESLVNGGAERSDGQWEGCRAAAGAPVPYPDPLEPRPG
MCF-7 cells
  IGF-1R agonist activity, proliferation of MCF-7 and MiaPaCa cells, in words: IGF-1R agonist activity

B2: H2C-9aa-H2C: MBP fusion, H2C dimer (Site 1-Site 1) with 9 amino acid linker (protein)
chain: NNNNLGIEGRISEFIEGRAQPAMAFHENFYDWFVRQVSGGSGGSGGSFHENFYDWFVRQVSAAAGAPVPYPDPLEPRAA
modifications: left off: large carriers; small tags and cut ends
[1]
  stimulation of autophosphorylation of IR: active

B3: MADYKDDDDKGSLDESFYDWFERQLGKKGGSGGSWLDQEWAWVQCEVYGRGCPSAAA(ETAG)PG (protein)
chain: MADYKDDDDKGSLDESFYDWFERQLGKKGGSGGSWLDQEWAWVQCEVYGRGCPSAAAGAPVPYPDPLEPRPG
modifications: E-tag
[2]
  activity in the free fat cell (FFC) assay / at IR, in words: active as specific insulin receptor antagonists
  FFC Pot., agonist or antagonist: N
  activity in the FFC assay using the standard concentration of insulin: inactive
  activity in the FFC assay in the presence of a stimulating concentration of insulin: antagonists
[3]
  Kinase Pot. (nM): Inactive
[4]
  IR / HIR binding affinity compared with monomer or homodimer peptides, in words: substantially higher (several orders of magnitude) affinity

B4: RP30-IGF-12-D112: dimer peptide (Site 1-Site 1) (protein)
chain: ADYKDSFYSCLESLVNGGAERSDGQWEGCRGGSGGSGGSGGSCWARPCGDAANFYDWFVQQASKKAAAGAPVPYPDPLEPRPG
MCF-7 cells
  IGF-1R agonist activity, proliferation of MCF-7 and MiaPaCa cells, in words: IGF-1R agonist activity

B5: H2C-3aa-H2C: MBP fusion, H2C dimer (Site 1-Site 1) with 3 amino acid linker (protein)
chain: NNNNLGIEGRISEFIEGRAQPAMAFHENFYDWFVRQVSGGSFHENFYDWFVRQVSAAAGAPVPYPDPLEPRAA
modifications: left off: large carriers; small tags and cut ends
[1]
  stimulation of autophosphorylation of IR: active

B6: 463 (protein)
chain: B5 chain
modifications: MBP fusion
IR
  Act. (activity): A—A

B7: MADYKDDDDKGSLDESFYDWFERQLGKKGGSGGSGGSGGSWLDQEWAWVQCEVYGRGCPSAAA(ETAG)PG (protein)
chain: MADYKDDDDKGSLDESFYDWFERQLGKKGGSGGSGGSGGSWLDQEWAWVQCEVYGRGCPSAAAGAPVPYPDPLEPRPG
modifications: E-tag
[2]
  activity in the free fat cell (FFC) assay / at IR, in words: active as specific insulin receptor antagonists
  FFC Pot., agonist or antagonist: N
  activity in the FFC assay using the standard concentration of insulin: inactive
  activity in the FFC assay in the presence of a stimulating concentration of insulin: antagonists
[3]
  Kinase Pot. (nM): Inactive
[4]
  IR / HIR binding affinity compared with monomer or homodimer peptides, in words: substantially higher (several orders of magnitude) affinity
